According to article PMC6551489, “Structural insights into interactions between viral suppressor of RNA silencing protein p19 mutants and small RNAs” (FEBS Open Bio, 2019):
Numbering of substitutions follows the chain as printed. Numbers in names are those of the source.

T1: CIRV p19-WT (Carnation Italian ringspot virus, UniProt Q66104 1-172)
T1 sequence: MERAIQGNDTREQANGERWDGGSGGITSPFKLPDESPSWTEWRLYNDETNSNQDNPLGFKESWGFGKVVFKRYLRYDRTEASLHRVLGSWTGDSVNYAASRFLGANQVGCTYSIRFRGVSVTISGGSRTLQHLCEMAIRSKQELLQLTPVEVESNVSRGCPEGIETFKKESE

B1: wild-type p19 protein from the Carnation Italian ringspot virus (natural protein)
chain: T1 sequence
notes: p19 viral suppressor of RNA silencing, Carnation Italian ringspot virus (CIRV), full-length construct, codon-optimized for E. coli, in pHis-parallel 2; Crystallised in complex with GL2 siRNA duplex; also called p19-WT; CIRV p19; source: E. coli BL21 DE3, purified (Nickel resin, TEV cleavage, size-exclusion chromatography); not shown: His6, N-terminal, cleaved
B2: p19-T111S mutant of the Carnation Italian ringspot virus p19 protein (natural protein, UniProt Q66104 1-172, looked up)
chain: T1 sequence with T111S
notes: Crystallised in complex with GL2 siRNA duplex; also called S111; source: E. coli BL21 DE3, purified (Nickel resin, TEV cleavage, size-exclusion chromatography); not shown: His6, N-terminal, cleaved
B3: p19-T111H mutant of the Carnation Italian ringspot virus p19 protein (natural protein, UniProt Q66104 1-172, looked up)
chain: T1 sequence with T111H
notes: Crystallised in complex with GL2 siRNA duplex; also called H111; source: E. coli BL21 DE3, purified (Nickel resin, TEV cleavage, size-exclusion chromatography); not shown: His6, N-terminal, cleaved
B4: GL2 siRNA duplex (dsRNA)
RNA 1: CGUACGCGGAAUACUUCGAUU
RNA 2: UCGAAGUAUUCCGCGUACGUU
modifications: 5' phosphorylated strands; text says deoxythymidine 2-nt overhangs, but printed as UU

Key:
[1] = target: the molecule itself; assay: crystal structure; p19 homodimer in complex with GL2 siRNA duplex; hanging drop vapour diffusion at 4 °C, 3-12% PEG 1500, 100 mM sodium acetate pH 4.6, 10-40 mM MgCl2; space group P1
[2] = target: T1, CIRV p19-WT; assay: X-ray crystallography; 2.2 A; Protein in 20 mM Tris pH 7.4, 150 mM NaCl, 1 mM TCEP before crystallization; crystallization conditions not in the material; conditions: protein: recombinant; tags: N-terminal His6 removed with TEV protease; chain copies: 2; 19 bp, 3' overhang 2 nt on both strands

Binder | binding result [1] | binding result [2]
B1 | binds | 
B2 | binds | 
B3 | binds | 
B4 |  | binds
